Measurements taken from patent US20250122242A1, “SELECTION SYSTEMS, PEPTIDES DETERMINED THEREWITH, AND METHODS OF USING SAME” (Wisconsin Alumni Research Foundation, priority 2023, published 2025).

Legend:
hIAPP = molecular target: T1, hIAPP (Homo sapiens, UniProt P10997); experiment: ThT fluorescence assay of in vitro hIAPP aggregation; assay type: biochemical; details: for effect on aggregation lag time (tlag) / inhibition of hIAPP aggregation (ThT fluorescence): 10 μM hIAPP, PBS pH 6.9, 32° C.; for effect on aggregation lag time (tlag): ThT; for activity relative to MCIP-2a: at higher peptide:hIAPP stoichiometries; for inhibition of hIAPP aggregation (ThT fluorescence): chemically synthesized peptide, quiescent
T1 construct: A 1 mg portion of amylin trifluoroacetate salt (Bachem) was purchased as lyophilized solid in a vial; purchased Bachem
T1 sequence (P10997 34-70 limits assumed): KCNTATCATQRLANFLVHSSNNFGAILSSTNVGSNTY
Method: Preparation of ThT stock solution. To prepare a stock solution of ThT (2-3 mM), 2-4 mg of ThT was added to 3 mL PBS (pH 6.9) in a 15 mL conical tube. The solution was sonicated for 5 min and the supernatant was filtered through a 0.22 μm syringe filter into a 1.5 mL Eppendorf tube. This was the ThT stock solution to be used in following experiments. 2 mL of a 1:200 diluted ThT solution was prepared by adding 10 μL ThT stock solution into 1990 μL PBS. The absorbance of the diluted ThT solution measured at 412 nm was used to calculate the ThT stock concentration using an extinction coefficient (c) of 31600 M^−1 cm^−1.
Preparation of hIAPP stocks. A 1 mg portion of amylin trifluoroacetate salt (Bachem) was purchased as lyophilized solid in a vial. The solid was dissolved in pre-chilled 2562 μL 35 mM sodium acetate (pH 5.3) to a stock concentration of 100 μM on ice. Aliquots of hIAPP were prepared by transferring 200 μL of the 100 μM hIAPP stock solution to low-protein-binding Eppendorf tubes on ice. The aliquots were then immediately snap frozen using liquid N2, lyophilized for 24 h, and stored at −80° C. until use.
Preparation of samples for ThT assays. Using cyclic peptide stock solution (100 μM) and PBS, 400 μL aqueous solution of cyclic peptide was prepared in a low-protein-binding Eppendorf tube to achieve the desired cyclic peptide:hIAPP molar ratio (80 μM for 4:1, 40 μM for 2:1, 20 μM for 1:1, 10 μM for 0.5:1, 0 μM for 0:1). 30 μL of the solution was then loaded to wells on a black clear-bottom low-binding 96-well plate (Corning 3881) to make a triplicate for each condition. This plate loaded with aqueous solutions of cyclic peptides was then ready for adding hIAPP.
Preparation and addition of hIAPP for ThT assays. Using ThT stock solution and PBS, 1 mL ThT solution (10 μM) was prepared in a low-protein-binding Eppendorf tube and chilled on ice. 0.5 mL of the pre-chilled ThT solution was added to one aliquot of lyophilized hIAPP, which was equilibrated to room temperature before opening the tube. Pipetting up and down four times was performed to facilitate complete dissolving of hIAPP. The 0.5 mL hIAPP-containing solution was immediately transferred to the remaining 0.5 mL ThT solution on ice. Pipetting up and down four times was performed to facilitate complete mixing. The resulting 1 mL hIAPP solution, where [hIAPP]=20 μM, was immediately transferred to a 25 mL liquid reservoir. Using a multi-channel pipette, 30 μL of the hIAPP solution was quickly loaded into wells containing aqueous solutions of cyclic peptides on the 96-well plate. Final [hIAPP]=10 μM, [ThT]=5 μM.
ThT assay conditions. The plate was then quickly covered and incubated in a Tecan M Plex microplate reader under quiescent condition at 32° C. for at least 12 h. ThT fluorescence at 480 nm was measured every 5 min through the bottom of the plate using an excitation wavelength of 440 nm.
Fitting of aggregation kinetics. ThT aggregation kinetics data was fit to a sigmoidal function using GraphPad Prism and the aggregation lag time (tlag) and the apparent fibril elongation rate (kapp) calculated as described.^55

Aβ42-T7n = Aβ42-T7n (UniProt P00573+P05067); details: clonal SP encoding the sequence
Aβ42-T7n, sequence (P05067+P00573 fused): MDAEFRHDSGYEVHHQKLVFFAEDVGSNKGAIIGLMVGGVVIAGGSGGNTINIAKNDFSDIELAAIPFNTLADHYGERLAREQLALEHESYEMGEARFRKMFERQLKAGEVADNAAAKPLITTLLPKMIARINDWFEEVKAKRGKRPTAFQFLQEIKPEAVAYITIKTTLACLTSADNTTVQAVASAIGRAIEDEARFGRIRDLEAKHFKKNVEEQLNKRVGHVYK
Source text: Therefore, we turned to a split-T7 RNA polymerase (T7 RNAP) reporter used to evolve proteins with improved soluble expression.^33 In our new selection, host E. coli express an aggregation-prone protein (APP) fused to the N-terminal half of split-T7 RNAP (T7n). When the APP-T7n fusion is translated, it misfolds due to the APP, preventing T7n from associating with the C-terminal half of split-T7 RNAP (T7c; FIG. 2A). If a SP-encoded inhibitor binds to and prevents APP aggregation, the fused T7n will remain folded and join with T7c to produce full-length T7 RNAP. The reconstituted T7 RNAP then transcribes gIII, which we place under control of the T7 promoter (PT7), producing pill and allowing the SP to reproduce (FIGS. 2A and 2B).
We used the SICLOPPS method to biosynthesize cyclic peptides that can be selected in E. coli.^15 In SICLOPPS, a precursor fusion consisting of the C-terminal half of the Ssp DnaE split intein, the peptide sequence to be cyclized, and the N-terminal half of the same split intein undergoes intein splicing after translation to produce head-to-tail cyclized peptides (FIG. 7).
(§1) Strain S206035 was used for plasmid cloning, amplification, and phage assays. Strain S220835 was used for SP cloning and plaque assays. Plasmids and SPs were cloned by USER assembly or blunt-end ligation. Competent cells were prepared and transformed using the TSS method. Phage propagation and plaque assays were performed as previously described.^54 Unless otherwise noted, phage propagation assays used an input of […] phage to infect a 2 mL culture of host cells.

hIAPP-T7n = hIAPP-T7n (UniProt P00573+P10997); details: clonal SP encoding the sequence (FIG. 5E)
hIAPP-T7n, sequence (P10997+P00573 fused): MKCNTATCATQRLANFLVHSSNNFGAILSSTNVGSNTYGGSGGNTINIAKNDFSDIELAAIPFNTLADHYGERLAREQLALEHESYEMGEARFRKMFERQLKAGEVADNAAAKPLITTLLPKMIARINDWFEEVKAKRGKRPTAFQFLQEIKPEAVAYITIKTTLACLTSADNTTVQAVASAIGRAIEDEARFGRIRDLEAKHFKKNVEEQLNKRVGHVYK
Source text: Next, we examined if our system could discover inhibitors of other disease-associated APPs. We targeted human islet amyloid polypeptide (hIAPP), which forms amyloid deposits in patients with type-2 diabetes that are hypothesized to contribute to […] dysfunction.^40 To create a selection for hIAPP aggregation inhibitors, we simply cloned hIAPP in place of Aβ42 in our selection circuit (FIG. 2B). We used an SP-encoded CZ6 SICLOPPS library (Z=NDT codon encoded amino acid: R, N, D, C, G, H, I, L, F, S, Y, or V) (˜3×10^6 total sequences). This codon set was chosen to reduce the theoretical library size and facilitate library cloning. The library (total of ˜5×10^6 transformants) was cloned on a SP obtained from an additional 250 hours of PACE using a more stringent selection (FIGS. 10A-10D).
as §1

| Substance | effect on aggregation lag time (tlag) (hIAPP) | activity relative to MCIP-2a (hIAPP) | inhibition of hIAPP aggregation (ThT fluorescence) (hIAPP) | phage propagation activity (fitness) on Aβ42-T7n selection (Aβ42-T7n) | phage propagation activity on hIAPP-T7n selection (hIAPP-T7n) |
| --- | --- | --- | --- | --- | --- |
| CDLGVFR (cyclised; Circular) [cyclo-CDLGVFR] | extended tlag | less active than MCIP-2a | inhibited hNAPP fibrillation | – | – |
| CHVVGVI (cyclised; Circular) [cyclo-CHVVGVI] | delaying the aggregation lag time (tlag) in a dose-dependent fashion | less active than MCIP-2a | inhibited hIAPP aggregation | propagated robustly | propagated robustly |
| CRCVFSG (cyclised; Circular) [cyclo-CRCVFSG] | extended tlag | less active than MCIP-2a | inhibited hNAPP fibrillation | – | – |
